This is an account of results in patent US20080213817.

In series [1] the test system is GST-c-Jun fusion protein [GST: P08515].
The target of a further series is E3 ubiquitin ligase Itch (UniProt Q8C863).
Sequence of E3 ubiquitin ligase Itch (UniProt Q8C863) (Q8C863 2-864): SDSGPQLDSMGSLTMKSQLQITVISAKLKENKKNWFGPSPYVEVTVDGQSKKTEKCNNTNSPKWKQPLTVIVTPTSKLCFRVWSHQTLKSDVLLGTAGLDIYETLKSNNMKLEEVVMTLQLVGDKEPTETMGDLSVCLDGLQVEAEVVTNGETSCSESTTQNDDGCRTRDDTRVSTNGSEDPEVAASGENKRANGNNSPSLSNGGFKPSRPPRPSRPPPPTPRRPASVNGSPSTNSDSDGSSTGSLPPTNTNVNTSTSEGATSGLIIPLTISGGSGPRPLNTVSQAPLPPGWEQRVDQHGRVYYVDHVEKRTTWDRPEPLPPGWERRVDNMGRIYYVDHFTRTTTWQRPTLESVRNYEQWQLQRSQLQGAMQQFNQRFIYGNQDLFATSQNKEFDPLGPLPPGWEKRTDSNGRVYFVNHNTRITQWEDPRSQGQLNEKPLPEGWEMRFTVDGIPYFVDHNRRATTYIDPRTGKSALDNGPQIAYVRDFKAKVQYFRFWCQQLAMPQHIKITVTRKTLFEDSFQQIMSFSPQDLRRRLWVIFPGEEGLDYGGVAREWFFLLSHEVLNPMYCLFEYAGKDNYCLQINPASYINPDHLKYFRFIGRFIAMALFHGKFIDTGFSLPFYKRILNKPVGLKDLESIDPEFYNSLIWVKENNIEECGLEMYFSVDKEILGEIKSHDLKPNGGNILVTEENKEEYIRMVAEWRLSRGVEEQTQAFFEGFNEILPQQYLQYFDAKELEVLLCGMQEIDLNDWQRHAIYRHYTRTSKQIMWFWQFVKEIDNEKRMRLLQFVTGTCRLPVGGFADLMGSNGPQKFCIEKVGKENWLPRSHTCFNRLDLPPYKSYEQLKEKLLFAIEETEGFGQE

Sequence of GST-c-Jun fusion protein [GST: P08515] (P08515 whole entry, looked up, the tested form may be a part): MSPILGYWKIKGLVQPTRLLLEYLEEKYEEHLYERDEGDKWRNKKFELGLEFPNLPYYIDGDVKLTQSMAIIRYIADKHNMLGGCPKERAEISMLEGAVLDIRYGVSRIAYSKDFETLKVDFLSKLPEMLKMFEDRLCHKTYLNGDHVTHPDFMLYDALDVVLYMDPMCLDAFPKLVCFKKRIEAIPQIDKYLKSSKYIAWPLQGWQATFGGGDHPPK
Sequence of E3 ubiquitin ligase Itch (chain, as listed by the source): as the sequence (Q8C863 2-864) above

With E3 ubiquitin ligase Itch, the “polyubiquitination of c-Jun (in vitro ubiquitination assay, immunoblot with anti-c-Jun)” value in series [1] was “Itch isolated from primary T cells mediated polyubiquitination of c-Jun in a manner dependent on E1 and E2”.
For the substance “c-Jun N-terminal kinase 1 (JNK1), active”, in the series with E3 ubiquitin ligase Itch, the “Itch phosphorylation (in vitro kinase reaction with [gamma-32P]ATP, autoradiography)” value is listed as “Incubation of Itch with active JNK1 also led to its efficient phosphorylation”.
